Data set [1] has as its system NIH3T3 (mouse fibroblast cell line). Briefly: Inhibition of growth factor activity of VHH homodimer by FGFR antagonist. The format is cell-based. The conditions noted are these: 10 or 100 ng/mL test substance, 20 nM NVP-BGJ398. The protocol: The cell growth assay for FGF2 was performed according to the following procedure. On Day 1, a suspension including 2.5×10^4 cells/mL of NIH3T3 in DMEM of 10% CS and PS(+) was created, seeded on a CulturPlate-96 (White Opaque 96-well Microplate, manufactured by Perkin Elmer, Cat #6005680) at 100 μL/well, and cultured in a 5% CO2 incubator at 37° C. for 16 to 24 hours. On Day 2, the medium was replaced with FGF2 (PeproTech Cat #AF-100-18B) or serum-free PS(+) DMEM including various test substances, and the cells were further cultured for 2 days. On Day 4, the 96-well plate was left at room temperature for 30 minutes, and then 100 μL of Cell Titer Glo 2.0 Reagent (manufactured by Promega Corporation) at room temperature was added to each well, followed by stirring at 500 rpm for 2 minutes using a plate mixer. The plate was further left to stand for 8 minutes, and then the luminescence in each well was measured with a Synergy HTX plate reader (manufactured by BioTek) with a sensitivity set (Gain) of 200 and a measurement time of 1 s/well.
The addition amounts of FGF2 and #1L4 (hereinafter also referred to as “#1-L4-#1”), which is a dimer of VHH #1 with a linker […], were each 10 or 100 ng/mL.

For data set [2], the system named is mouse fibroblast cell line NIH/3T3. Briefly: Solution preservation stability of bFGF and VHH homodimer, read out by fibroblast growth. It is filed as cell-based. As to conditions: 0.5 mg/mL in D-PBS, fibroblast growth on second day. The protocol:
bFGF and the VHH homodimer (SEQ ID NO: 23, sequence name: #1-LA-#1, sometimes referred to as a single-domain antibody) was mixed with a D-PBS solution (Fujifilm Wako Pure Chemical Corporation) so that the concentration was 0.5 mg/mL, and incubation was performed at 37° C. for 1 week. Then, the growth promoting abilities for fibroblast growth of four test subjects, which are an incubated VHH homodimer, a pre-incubated bFGF, a VHH homodimer after thawing from freeze-preservation, and bFGF immediately after solutionizing with D-PBS from a freeze-dried product, were evaluated. As a negative control, culture without any of the bFGF and the VHH homodimer was also performed at the same time. The culture conditions were the same as those in Item 1 and Item 2 of the present Example, and the cell growth was evaluated by the number of cells on the second day after the start of culture.

Another data set concerns the target T1, FGFR1-Fc (Homo sapiens, UniProt P11362).
T1 construct: each consisting of an extracellular region of FGFR1; purchased R & D Systems 661-FR
T1 sequence (P11362 22-285 isoform P11362-14 limits assumed): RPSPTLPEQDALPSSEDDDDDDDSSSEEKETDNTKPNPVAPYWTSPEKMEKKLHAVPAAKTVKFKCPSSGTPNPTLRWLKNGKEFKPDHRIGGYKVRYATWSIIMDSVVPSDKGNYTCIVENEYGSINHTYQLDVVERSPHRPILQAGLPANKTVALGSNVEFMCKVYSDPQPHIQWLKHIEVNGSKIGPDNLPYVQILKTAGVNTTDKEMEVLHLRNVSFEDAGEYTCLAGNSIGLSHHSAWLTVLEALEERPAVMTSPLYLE
The data set can be described thus: Affinity measurement of VHH (monomer) by surface plasmon resonance (SPR). As to conditions: 1:1 binding model; for ka: 25° C.; for Kd: Biacore T200, 25° C., read-out: equilibrium dissociation constant (KD). On the procedure:
Affinity measurement of VHH (monomer) was performed by a surface plasmon resonance (SPR) method.
The binding activity of VHH Clone #1 or VHH Clone #2 immobilized on Series S Sensor Chip CAP (manufactured by Cytiva) with respect to FGFR1-Fc was measured using Biacore (registered trademark) T200 (manufactured by Cytiva). Measurement was performed by CAP Single-cycle Kinetics. The temperature was set to 25° C. As a running buffer, 10 mM HEPES (pH 7.4) (Cytiva) including HBS-EP+(150 mM NaCl, 0.5 mM EDTA, and 0.05% surfactant P20) was used. The measurement order for each run is as follows.
1) Immobilization of biotinylated FGFR1-Fc: The flow rate was set to […], Biotin CAPture Reagent (Cytiva) was added thereto for 300 seconds, then the flow rate was set to […], and an FGFR1-Fc solution diluted with a running buffer was added thereto for 120 seconds to immobilize 140 RU. Here, the “resonance unit (RU)” is a unit used in the above-described Biacore, and a change of an SPR angle of 0.1° is defined as 1,000 RU.
2) Measurement of binding activity: The flow rate was set to 30 μL/mL, and VHH Clone #1 or VHH Clone #2 each diluted to 1.85 nM, 5.56 nM, 16.67 nM, or 50 nM, using a running buffer, was allowed to have an association time set to 120 seconds for binding and a dissociation time set to 600 seconds for interaction.
3) Regeneration of sensor chip surface: The flow rate was set to 10 μL/mL, a solution in which Reaneration stock 1 and Regeneration stock 2 (manufactured by Cytiva) were mixed at the ratio of 3:1 was added thereto for 120 seconds to extract the immobilized VHH. Next, analysis was performed with a 1:1 binding model using Biacore T200 Evaluation (software version 2.0, manufactured by Cytiva), and the binding activity was calculated.
In general terms: Surface plasmon resonance follows binding to a sensor surface in real time, without labels.

Consider “FGF2: fibroblast growth factor (basic), human, recombinant (154aa), positive control; SEQ ID NO: 58 [reference compound]”, for which the “cell growth activity with addition of NVP-BGJ398” value in data set [1] is recorded as “inhibited”. In data set [2], the “cell growth activity after incubation at 37° C. for 1 week” value is given as “the same as that in the case of no addition”.

B1: VHH Clone #1: alpaca-derived VHH single-domain antibody (monomer) binding FGFR1, amino acid sequence SEQ ID NO: 17 (protein)
VHH: QLQLVESGGGSVQAGGSLRLSCAASRSLSRFNVWTWYRQAPVKQRELVASITKSGDTNYAESVKGRFIISRDDDKNTVYLQMNNLKSEDTGIYYCAGSYYSGSYLYPSPGGFSVWGQGTQVTVSS
modifications: VHH_Clone_#1
By Kd is commonly meant the constant that tells how readily two partners part at equilibrium. Turning to B1, in the data set with FGFR1-Fc, the ka amounted to 8.19e+06 M⁻¹ s⁻¹ and the dissociation constant (Kd) is 1.74 nM.

B2: #1-L4-#1: dimer of VHH #1 with linker L4 (GSEGKSSGSGSESKST), SEQ ID NO: 23 (protein)
VHH: QLQLVESGGGSVQAGGSLRLSCAASRSLSRFNVWTWYRQAPVKQRELVASITKSGDTNYAESVKGRFIISRDDDKNTVYLQMNNLKSEDTGIYYCAGSYYSGSYLYPSPGGFSVWGQGTQVTVSSGSEGKSSGSGSESKSTQLQLVESGGGSVQAGGSLRLSCAASRSLSRFNVWTWYRQAPVKQRELVASITKSGDTNYAESVKGRFIISRDDDKNTVYLQMNNLKSEDTGIYYCAGSYYSGSYLYPSPGGFSVWGQGTQVTVSS
modifications: #1-L4-#1
B2: the “cell growth activity with addition of NVP-BGJ398” value in data set [1] is recorded as “inhibited”. Moreover, in data set [2], the “cell growth activity after incubation at 37° C. for 1 week” value is “exhibited the same cell growth activity as that of bFGF”.

B3: VHH Clone #2: alpaca-derived VHH single-domain antibody (monomer) binding FGFR1, amino acid sequence SEQ ID NO: 18 (protein)
VHH: QVQLVESGGGLVQAGGSLRLSCAVPGSIFRFNTMGWYRQPPGKQRELVAQMSRGGITKYGDSVKGRFTITRDNAKNTVHLQMNSLKPEDTAVYYCAGSYYSGSYYYPSPQGFSVWGQGTQVTVSP
modifications: VHH_Clone_#2
For B3, in the data set with FGFR1-Fc, the ka turned out to be 1.11e+06 M⁻¹ s⁻¹ and the Kd came out at 1.02 nM.

For the origin of these results see patent US20240279618A1, “RECEPTOR TYROSINE KINASE AGONIST, COMPOSITION FOR CELL CULTURE MEDIUM, AND […] MAINTENANCE COMPOSITION” (SEKISUI CHEMICAL CO., LTD., priority 2021, published 2024).
